# Several values for one entry are separate records, joined by “and”; a condition that tells them apart may be missing. Equal values may be shown once. Where a SMILES comes first, the peptide text is derived from it. The star is where a group is joined. 124I = [124I]*; 125I = [125I]*
# Assays:
# Type in all cases: in vivo, mouse
# [1] = test system: AA amyloid deposits; assay: Tissue biodistribution of ^124I radioactivity; conditions: 120 min pi of ^124I-p5; n = 3; more in AA mice
# [2] = test system: amyloid-laden (AA) H2-L^d-HuIL-6 Tg BALB/c mice; assay: Dynamic PET/CT imaging of ^124I-p5, time activity curves, amyloid-laden
# [3] = Dynamic PET/CT imaging of ^124I-p5, time activity curves, healthy; conditions: WT mice, ^124I-p5 IV
# [4] = Dynamic PET/CT imaging of ^124I-p5 in mice; conditions: ^124I-p5 IV, dynamic PET
# [5] = test system: AA amyloid deposits; assay: Longitudinal SPECT/CT imaging of ^125I-p5 in AA mice
# [6] = test system: AA amyloid deposits; conditions: ^125I-p5; 72 h pi; AA mice; microautoradiography
# [7] = AA mice, ^124I-p5 IV, dynamic PET 2 h, double exponential fit
# [8] = AA mice, ^124I-p5 IV, dynamic PET 2 h, single exponential fit
# [9] = higher in AA mice, biexponential decay, dynamic PET
# [10] = dynamic PET 2 h, double exponential fit
# [11] = dynamic PET 2 h, single exponential fit
compound,measurement,setting,value
"^124I-p5: peptide p5 radiolabeled with ^124I on Tyr using Iodogen, for PET imaging (H-GGGY(124I)SKAQKAQAKQAKQAQKAQKAQAKQAKQ-OH)","Radioactivity (%ID/g) in liver, pancreas and spleen, AA mice compared to WT mice",[1],~ 10 fold
same,Lag time (tlag) before accumulation of radioactivity in stomach,"[2]; AA mice, ^124I-p5 IV, dynamic PET",~ 8 min
same,"Kslow, liver","[2]; AA mice, ^124I-p5 IV, dynamic PET 2 h, double exponential association",0.17 ± 0.01 min⁻¹
same,"Kslow, blood (heart ROI)",[2]; [7],0.49 ± 0.04 min⁻¹
same,"T1/2 fast, blood",[2]; [7],0.49 min
same,"T1/2 fast, liver",[2]; [7],0.31 min
same,"Kfast, spleen","[2]; AA mice, ^124I-p5 IV, dynamic PET 2 h, single exponential association",0.04 ± 0.00 min⁻¹
same,"Kfast, kidney",[2]; [8],0.04 min⁻¹ and 0.04 ± 0.003 min⁻¹
same,"T1/2 fast, kidney",[2]; [8],16.62 min
same,"T1/2 fast, spleen",[2]; [8],15.62 min
same,"Blood pool Kfast (α component), AA mice relative to WT mice",[2]; [9],> 2 fold
same,"Blood pool Kslow (β), AA mice relative to WT mice",[2]; [9],> 2 fold
same,Lag time (tlag) before accumulation of radioactivity in stomach,[3]; dynamic PET,~ 8 min
same,Time of peak activity in the kidneys (tmax),[3]; dynamic PET,~ 7 min
same,"T1/2 fast, liver",[3]; [10],0.70 min
same,"T1/2 slow, blood",[3]; [10],37.99 min
same,"T1/2 slow, liver",[3]; [10],20.82 min
same,"Kfast, kidney","[3]; dynamic PET 2 h, single exponential decay after peak",0.06 min⁻¹ and 0.06 ± 0.001 min⁻¹
same,"T1/2 fast, kidney",[3]; [11],10.96 min
same,"T1/2 fast, spleen",[3]; [11],11.19 min
same,"T1/2 fast, thyroid",[3]; [11],20.67 min
same,Lag time (tlag) of thyroid radioactivity,[4]; WT and AA not distinguished,~ 8 min
same,Radioactivity removed from the blood pool,[4]; by 5 min pi,~ 90%
C[C@H](NC(=O)[C@H](CCC(N)=O)NC(=O)[C@H](C)NC(=O)[C@H](CCCCN)NC(=O)[C@H](CCC(N)=O)NC(=O)[C@H](C)NC(=O)[C@H](CCCCN)NC(=O)[C@H](CCC(N)=O)NC(=O)[C@H](C)NC(=O)[C@H](CCC(N)=O)NC(=O)[C@H](CCCCN)NC(=O)[C@H](C)NC(=O)[C@H](CCC(N)=O)NC(=O)[C@H](CCCCN)NC(=O)[C@H](C)NC(=O)[C@H](CCC(N)=O)NC(=O)[C@H](C)NC(=O)[C@H](CCCCN)NC(=O)[C@H](CCC(N)=O)NC(=O)[C@H](C)NC(=O)[C@H](CCCCN)NC(=O)[C@H](CO)NC(=O)[C@H](Cc1ccc(O)cc1)NC(=O)CNC(=O)CNC(=O)CN)C(=O)N[C@@H](CCCCN)C(=O)N[C@@H](CCC(N)=O)C(=O)N[C@@H](C)C(=O)N[C@@H](CCCCN)C(=O)N[C@@H](CCC(N)=O)C(=O)O [p5] (H-GGGYSKAQKAQAKQAKQAQKAQKAQAKQAKQ-OH),Time the peptide remains bound to amyloid in vivo,[5]; mice,at least 3 days
same,Time the peptide remains stably bound to amyloid deposits and radioactive,"[5]; mice, pi",at least 72 h
"^125I-p5: peptide p5 radioiodinated with ^125I using chloramine T, for SPECT imaging (H-GGGY(125I)SKAQKAQAKQAKQAQKAQKAQAKQAKQ-OH)",Reactivity with healthy tissues,[6],No significant reactivity
same,"Loss of radioactivity from major amyloid organs (liver, spleen and pancreas)","[5]; AA mice, ^125I-p5, 72 h pi, SPECT",essentially no loss of radioactivity
same,Time of retention in the liver and spleen,"[5]; AA mice, ~5 μg ^125I-p5 (~150 μCi) IV, SPECT/CT at 2, 24, 48, 72 h pi",more than 72 h
